Experimental data: doi:10.1101/2025.11.20.689565
Where a chain is given by its changes, count along the chain named. Numbers in names are those of the source. Each block holds one binder with its values, some of them ahead of it.

How the values were obtained:
[1] = biological target: T1, C. elegans γ-tubulin complex (γTuC): γ-tubulin TBG-1, GCP2 GIP-2-5Myc, GCP3 GIP-1 and MZT-1, P34475;G5EF84; assay: pull-down on γTuC-coated beads, anti-MBP immunoblot; conditions: chain shown with the change, binding 2 hours at 4°C, scale: band intensity relative to SPD-5 1-113 without PLK1
T1 sequence (chain, as listed by the source, chain 1 of 4): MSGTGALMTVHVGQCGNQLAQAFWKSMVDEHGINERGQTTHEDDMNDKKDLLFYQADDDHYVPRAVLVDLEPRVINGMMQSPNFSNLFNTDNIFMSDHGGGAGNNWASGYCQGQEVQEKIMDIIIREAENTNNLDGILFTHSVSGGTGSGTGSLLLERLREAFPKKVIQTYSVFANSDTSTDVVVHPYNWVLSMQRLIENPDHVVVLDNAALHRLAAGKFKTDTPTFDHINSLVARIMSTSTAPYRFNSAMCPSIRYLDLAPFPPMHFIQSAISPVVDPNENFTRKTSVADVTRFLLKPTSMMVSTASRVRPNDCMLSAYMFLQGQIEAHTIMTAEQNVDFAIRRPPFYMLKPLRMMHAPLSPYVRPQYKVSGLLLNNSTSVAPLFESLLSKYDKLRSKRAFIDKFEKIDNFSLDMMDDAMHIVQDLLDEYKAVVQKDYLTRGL
T1 sequence (chain, as listed by the source, chain 2 of 4): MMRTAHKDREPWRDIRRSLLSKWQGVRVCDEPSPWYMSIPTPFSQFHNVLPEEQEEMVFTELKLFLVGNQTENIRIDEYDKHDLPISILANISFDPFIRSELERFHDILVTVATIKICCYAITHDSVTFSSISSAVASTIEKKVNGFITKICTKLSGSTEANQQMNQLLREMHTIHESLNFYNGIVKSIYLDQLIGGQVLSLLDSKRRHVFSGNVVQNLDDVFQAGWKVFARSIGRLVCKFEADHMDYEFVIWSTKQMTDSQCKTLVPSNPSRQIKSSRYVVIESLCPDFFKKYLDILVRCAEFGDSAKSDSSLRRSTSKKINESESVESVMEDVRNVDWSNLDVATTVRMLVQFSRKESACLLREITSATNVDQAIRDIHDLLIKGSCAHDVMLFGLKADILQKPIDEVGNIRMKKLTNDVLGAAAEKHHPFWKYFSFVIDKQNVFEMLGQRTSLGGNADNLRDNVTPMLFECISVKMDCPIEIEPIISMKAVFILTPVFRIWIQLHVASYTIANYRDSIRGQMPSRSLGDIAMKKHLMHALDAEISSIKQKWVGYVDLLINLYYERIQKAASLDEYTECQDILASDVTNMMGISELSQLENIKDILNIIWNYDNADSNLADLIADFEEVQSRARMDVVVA
T1 sequence (chain, as listed by the source, chain 3 of 4): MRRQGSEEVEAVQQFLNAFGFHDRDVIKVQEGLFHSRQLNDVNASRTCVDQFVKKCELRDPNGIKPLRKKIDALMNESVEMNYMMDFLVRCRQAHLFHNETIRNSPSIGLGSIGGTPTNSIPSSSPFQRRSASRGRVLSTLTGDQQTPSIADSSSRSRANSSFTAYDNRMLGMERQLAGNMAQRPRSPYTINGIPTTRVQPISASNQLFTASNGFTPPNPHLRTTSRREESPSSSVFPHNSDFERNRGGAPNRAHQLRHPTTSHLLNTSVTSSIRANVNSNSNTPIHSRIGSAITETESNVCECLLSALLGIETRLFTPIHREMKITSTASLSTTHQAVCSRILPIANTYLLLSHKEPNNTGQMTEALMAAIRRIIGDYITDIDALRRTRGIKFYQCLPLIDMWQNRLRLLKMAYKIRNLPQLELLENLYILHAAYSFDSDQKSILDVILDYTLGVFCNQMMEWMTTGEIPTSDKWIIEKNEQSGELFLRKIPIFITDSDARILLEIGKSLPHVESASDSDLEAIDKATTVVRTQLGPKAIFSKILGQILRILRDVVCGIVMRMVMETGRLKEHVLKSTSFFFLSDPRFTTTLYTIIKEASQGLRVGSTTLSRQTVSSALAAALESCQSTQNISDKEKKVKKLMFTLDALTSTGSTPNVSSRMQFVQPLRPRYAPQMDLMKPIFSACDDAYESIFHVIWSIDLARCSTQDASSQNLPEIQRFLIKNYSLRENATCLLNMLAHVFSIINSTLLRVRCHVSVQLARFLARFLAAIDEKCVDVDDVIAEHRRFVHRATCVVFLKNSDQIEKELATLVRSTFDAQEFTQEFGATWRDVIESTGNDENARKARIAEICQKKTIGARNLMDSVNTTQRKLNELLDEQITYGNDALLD
T1 sequence (chain, as listed by the source, chain 4 of 4): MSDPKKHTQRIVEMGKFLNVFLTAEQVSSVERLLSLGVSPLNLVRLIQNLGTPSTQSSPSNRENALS

[2] = biological target: T1, C. elegans γ-tubulin complex (γTuC): …; assay: pull-down on γTuC-coated beads, anti-SPD-5 immunoblot; conditions: chain shown with the change, binding 2 hours at 4°C, scale: band intensity relative to SPD-5 135-473 without PLK1
[3] = +PLK1 preincubation (2.0 μM fragment, 500 nM PLK1(T194D), 0.2 mM ATP, 1 hour at 23°C), 75 nM SPD-5 …

B1: MBP-6His-HA (M6HH)-tagged SPD-5 aa 1-113, PLK1-phosphorylated, P91349 S5A; S11A (protein)
chain: MEDNAVLNEDANLEHVEGQPRRSMSQPVLNVEGDKRTSSTSATQQQVLSGAFSSADVRSIPIIQTWEENKALKTKITILRGELQMYQRRYSEAKEASQKRVKEVMDDYVDLKL
response [1, 3]: 4.7

B2: MBP-6His-HA (M6HH)-tagged SPD-5 aa 1-113, not phosphorylated, P91349 S5A; S11A (protein)
chain: B1 chain
response ([1]; no PLK1, 75 nM SPD-5 fragment): 0.6

B3: untagged SPD-5 aa 135-473, PLK1-phosphorylated, P91349 S170A; T178A; T198A (protein)
chain: MQSRIETSEDNFARQMKEFEAQKHAMEERIKELELAATDANNTAVGSFRGTLDDILKKNDPDFALTSGYEERKINDLEAKLLSEIDKVAELEDHIQQLRQELDDQSARLADSENVRAQLEAATGQGILGAAGNAMVPNSTFMIGNGRESQTRDQLNYIDDLETKLADAKKENDKARQALVEYMNKCSKLEHEIRTMVKNSTFDSSSMLLGGQTSDELKIQIGKVNGELNVLRAENRELRIRCDQLTGGDGNLSISLGQSRLMAGIATNDVDSIGQGNETGGTSMRILPRESQLDDLEESKLPLMDTSSAVRNQQQFASMWEDFESVKDSLQNNHNDTLE
response [2, 3]: 0.1

Next, values leading:

response ([2]; no PLK1, 75 nM SPD-5 fragment): 0.7
B4: untagged SPD-5 aa 135-473, not phosphorylated, P91349 S170A; T178A; T198A (protein)
chain: B3 chain

response ([2]; no PLK1, 75 nM SPD-5 fragment): 0.1
B5: untagged SPD-5 aa 135-473, not phosphorylated, P91349 T274A; T335A; S339A; S340A (protein)
chain: B3 chain with A36S, A44T, A64T, T140A, T201A, S205A, S206A

response [2, 3]: 0
B6: untagged SPD-5 aa 135-473, PLK1-phosphorylated, P91349 S170A; T178A; T198A; T274A; T335A; S339A; S340A (protein)
chain: B3 chain with T140A, T201A, S205A, S206A

response [2, 3]: 2.8
B7: untagged SPD-5 aa 135-473, PLK1-phosphorylated, P91349 T274A; T335A; S339A; S340A (protein)
chain: B3 chain with A36S, A44T, A64T, T140A, T201A, S205A, S206A

response ([2]; no PLK1, 75 nM SPD-5 fragment): 0.1
B8: untagged SPD-5 aa 135-473, not phosphorylated, P91349 S170A; T178A; T198A; T274A; T335A; S339A; S340A (protein)
chain: B3 chain with T140A, T201A, S205A, S206A
